Source: publication PMC4018121

Molecular target: rhSTIP1 (stress-induced phosphoprotein 1) (Homo sapiens, UniProt P31948 1-543)
Assay: aptamer blot on nitrocellulose, chemiluminescence

B1: TOV6 (structured_DNA)
DNA: ATCCAGAGTGACGCAGCACGGCACTCACTCTTTGTTAAGTGGTCTGCTTCTTAACCTTCATCGACACGGTGGCTTA
binding result: binds
